IntAct's records for PubMed 32296183

Legend:
cxa5_human GJA5 = cxa5_human GJA5 (UniProt P36382)
comt_human COMT = comt_human COMT (UniProt P21964)
cxa8_human GJA8 = cxa8_human GJA8 (UniProt P48165)
kash5_human KASH5 = biological target: T1, kash5_human KASH5 (UniProt Q8N6L0)
T1 sequence: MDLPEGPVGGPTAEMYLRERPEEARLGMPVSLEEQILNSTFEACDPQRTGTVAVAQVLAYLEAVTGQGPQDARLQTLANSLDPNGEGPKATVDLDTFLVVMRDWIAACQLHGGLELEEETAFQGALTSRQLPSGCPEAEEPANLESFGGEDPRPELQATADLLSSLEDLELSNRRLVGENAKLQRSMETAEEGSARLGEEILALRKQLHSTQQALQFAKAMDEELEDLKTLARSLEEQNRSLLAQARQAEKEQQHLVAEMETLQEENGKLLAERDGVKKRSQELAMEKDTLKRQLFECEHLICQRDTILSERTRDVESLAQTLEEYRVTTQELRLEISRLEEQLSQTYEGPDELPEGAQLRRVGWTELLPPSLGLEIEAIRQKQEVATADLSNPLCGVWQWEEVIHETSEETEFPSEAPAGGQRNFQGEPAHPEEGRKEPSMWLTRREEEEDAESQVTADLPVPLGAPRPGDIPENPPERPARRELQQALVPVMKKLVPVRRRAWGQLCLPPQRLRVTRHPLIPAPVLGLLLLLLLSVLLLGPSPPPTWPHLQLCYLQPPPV

ergi3_human ERGIC3 = ergi3_human ERGIC3 (UniProt Q9Y282)
crtp1_human CYSRT1 = biological target: T2, crtp1_human CYSRT1 (UniProt A8MQ03)
T2 sequence: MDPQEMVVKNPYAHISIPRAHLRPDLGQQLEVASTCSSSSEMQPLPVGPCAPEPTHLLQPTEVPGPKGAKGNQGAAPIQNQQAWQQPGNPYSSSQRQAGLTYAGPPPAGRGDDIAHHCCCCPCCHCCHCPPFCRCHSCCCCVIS

gpx8_human GPX8 = biological target: T3, gpx8_human GPX8 (UniProt Q8TED1)
T3 sequence: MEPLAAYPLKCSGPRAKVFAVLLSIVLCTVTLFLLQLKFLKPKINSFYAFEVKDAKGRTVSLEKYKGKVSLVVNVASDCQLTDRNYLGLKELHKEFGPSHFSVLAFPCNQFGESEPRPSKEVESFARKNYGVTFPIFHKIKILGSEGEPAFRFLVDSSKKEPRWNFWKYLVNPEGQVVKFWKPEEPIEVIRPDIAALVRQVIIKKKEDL

jam1_human F11R = biological target: T4, jam1_human F11R (UniProt Q9Y624)
T4 sequence: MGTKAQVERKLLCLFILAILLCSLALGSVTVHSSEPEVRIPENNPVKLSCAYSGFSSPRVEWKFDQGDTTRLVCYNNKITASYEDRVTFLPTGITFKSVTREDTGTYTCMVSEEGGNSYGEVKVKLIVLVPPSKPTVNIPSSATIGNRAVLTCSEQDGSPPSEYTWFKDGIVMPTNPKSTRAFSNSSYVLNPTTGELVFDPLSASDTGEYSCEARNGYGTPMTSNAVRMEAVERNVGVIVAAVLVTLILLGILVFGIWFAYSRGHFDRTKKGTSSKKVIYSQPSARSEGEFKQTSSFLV

gp152_human GPR152 = gp152_human GPR152 (UniProt Q8TDT2)
tm52b_human TMEM52B = tm52b_human TMEM52B (UniProt Q4KMG9)
ar13b_human ARL13B = ar13b_human ARL13B (UniProt Q3SXY8)

Acyltransferase PGAP2 (Homo sapiens) (from UniProt Q9UHJ9-5) T160I
effect of a mutation on the interaction (cxa5_human GJA5): with no effect | effect of a mutation on the interaction (comt_human COMT): with no effect | effect of a mutation on the interaction (cxa8_human GJA8): with no effect | effect of a mutation on the interaction (kash5_human KASH5): disrupting interaction strength | effect of a mutation on the interaction (ergi3_human ERGIC3): with no effect | effect of a mutation on the interaction (crtp1_human CYSRT1): disrupting interaction strength | effect of a mutation on the interaction (gpx8_human GPX8): with no effect | effect of a mutation on the interaction (jam1_human F11R): disrupting interaction strength | effect of a mutation on the interaction (gp152_human GPR152): with no effect | effect of a mutation on the interaction (tm52b_human TMEM52B): disrupting interaction strength | effect of a mutation on the interaction (ar13b_human ARL13B): with no effect
